Literature values in publication PMC5515885.

Target: Nup153 (Homo sapiens) (UniProt P49790)
UniProt P49790, sequence (P49790 2-1475): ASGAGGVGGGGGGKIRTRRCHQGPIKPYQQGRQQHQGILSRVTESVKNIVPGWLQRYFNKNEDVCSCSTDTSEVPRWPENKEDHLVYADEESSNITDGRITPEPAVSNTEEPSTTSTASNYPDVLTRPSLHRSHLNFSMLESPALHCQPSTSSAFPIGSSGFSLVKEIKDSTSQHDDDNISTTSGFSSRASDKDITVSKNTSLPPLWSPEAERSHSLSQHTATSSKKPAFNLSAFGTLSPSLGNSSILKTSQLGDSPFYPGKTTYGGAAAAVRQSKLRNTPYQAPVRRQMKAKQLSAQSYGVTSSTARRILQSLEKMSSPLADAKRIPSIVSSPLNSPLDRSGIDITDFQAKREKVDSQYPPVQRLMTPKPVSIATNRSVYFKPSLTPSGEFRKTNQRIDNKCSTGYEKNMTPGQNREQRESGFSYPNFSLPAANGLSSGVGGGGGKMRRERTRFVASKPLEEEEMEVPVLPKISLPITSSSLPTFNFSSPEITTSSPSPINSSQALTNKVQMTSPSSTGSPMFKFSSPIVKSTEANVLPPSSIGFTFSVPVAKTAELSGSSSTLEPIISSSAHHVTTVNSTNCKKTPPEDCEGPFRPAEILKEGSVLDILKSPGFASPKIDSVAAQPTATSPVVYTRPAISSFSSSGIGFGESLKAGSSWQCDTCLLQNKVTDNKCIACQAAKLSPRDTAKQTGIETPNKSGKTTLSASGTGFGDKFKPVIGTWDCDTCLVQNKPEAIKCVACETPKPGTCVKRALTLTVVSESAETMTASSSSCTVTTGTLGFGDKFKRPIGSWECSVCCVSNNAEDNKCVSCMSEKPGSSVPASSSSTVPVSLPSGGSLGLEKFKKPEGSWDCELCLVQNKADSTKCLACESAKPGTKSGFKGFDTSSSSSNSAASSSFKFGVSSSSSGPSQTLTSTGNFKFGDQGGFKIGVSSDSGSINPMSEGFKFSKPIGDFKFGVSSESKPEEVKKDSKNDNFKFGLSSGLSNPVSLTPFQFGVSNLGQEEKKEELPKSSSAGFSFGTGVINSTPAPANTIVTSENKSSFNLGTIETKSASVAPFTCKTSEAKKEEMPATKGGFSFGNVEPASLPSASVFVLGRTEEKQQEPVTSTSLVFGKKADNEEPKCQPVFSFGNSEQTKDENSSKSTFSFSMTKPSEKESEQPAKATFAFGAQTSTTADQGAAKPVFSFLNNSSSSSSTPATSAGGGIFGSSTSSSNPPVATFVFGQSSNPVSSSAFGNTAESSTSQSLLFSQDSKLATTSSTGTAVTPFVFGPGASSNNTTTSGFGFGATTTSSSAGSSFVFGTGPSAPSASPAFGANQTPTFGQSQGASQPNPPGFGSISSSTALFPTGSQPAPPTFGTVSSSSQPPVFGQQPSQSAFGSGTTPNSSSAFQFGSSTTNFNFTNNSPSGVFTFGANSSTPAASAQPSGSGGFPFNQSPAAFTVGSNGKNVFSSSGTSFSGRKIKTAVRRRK

Q: Which Kd does the source give for importin beta (from UniProt Q14974) here?
A: 9 nM
